{
  "source": "patent US12558350B2",
  "about": "“Compositions and methods for treatment” (Bausch + Lomb Ireland Limited, priority 2005, dated 2026)",
  "key": {"LFA-1 [1]": {"biological_target": "T1, LFA-1 (Homo sapiens, UniProt P05107+P20701)", "T1 construct": "made in house; host or cells: human 293 cells", "T1 sequence (P20701 26-1170)": "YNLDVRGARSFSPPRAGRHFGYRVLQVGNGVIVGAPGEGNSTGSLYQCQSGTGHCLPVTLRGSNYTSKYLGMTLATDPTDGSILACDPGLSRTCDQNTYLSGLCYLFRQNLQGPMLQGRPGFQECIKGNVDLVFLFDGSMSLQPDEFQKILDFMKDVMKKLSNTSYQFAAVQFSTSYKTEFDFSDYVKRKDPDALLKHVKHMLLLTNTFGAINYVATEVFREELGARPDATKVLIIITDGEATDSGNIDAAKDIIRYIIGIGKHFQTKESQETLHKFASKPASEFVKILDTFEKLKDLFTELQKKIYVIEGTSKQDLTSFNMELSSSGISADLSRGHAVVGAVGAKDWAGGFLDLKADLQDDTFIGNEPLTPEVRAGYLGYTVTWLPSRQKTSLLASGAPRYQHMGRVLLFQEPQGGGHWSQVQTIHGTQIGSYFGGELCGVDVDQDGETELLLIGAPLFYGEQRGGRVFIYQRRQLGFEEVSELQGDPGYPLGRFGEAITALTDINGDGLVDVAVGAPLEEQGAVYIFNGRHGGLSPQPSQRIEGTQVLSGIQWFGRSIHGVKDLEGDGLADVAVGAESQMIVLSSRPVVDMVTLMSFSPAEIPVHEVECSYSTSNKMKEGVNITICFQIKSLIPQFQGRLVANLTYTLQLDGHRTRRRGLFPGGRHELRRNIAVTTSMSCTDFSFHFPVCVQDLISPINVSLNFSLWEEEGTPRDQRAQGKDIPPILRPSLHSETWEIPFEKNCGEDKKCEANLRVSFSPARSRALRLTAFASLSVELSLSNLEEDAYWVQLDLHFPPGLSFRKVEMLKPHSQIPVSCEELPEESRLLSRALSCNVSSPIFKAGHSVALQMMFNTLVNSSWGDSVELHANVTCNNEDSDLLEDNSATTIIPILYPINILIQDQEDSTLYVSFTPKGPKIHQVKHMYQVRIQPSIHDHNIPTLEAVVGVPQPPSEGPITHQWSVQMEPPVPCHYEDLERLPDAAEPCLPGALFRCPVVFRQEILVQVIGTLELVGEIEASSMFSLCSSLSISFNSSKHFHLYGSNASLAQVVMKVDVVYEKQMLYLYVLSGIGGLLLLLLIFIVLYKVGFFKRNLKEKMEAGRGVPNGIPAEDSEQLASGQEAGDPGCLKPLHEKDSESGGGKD", "T1 sequence (P05107 23-769)": "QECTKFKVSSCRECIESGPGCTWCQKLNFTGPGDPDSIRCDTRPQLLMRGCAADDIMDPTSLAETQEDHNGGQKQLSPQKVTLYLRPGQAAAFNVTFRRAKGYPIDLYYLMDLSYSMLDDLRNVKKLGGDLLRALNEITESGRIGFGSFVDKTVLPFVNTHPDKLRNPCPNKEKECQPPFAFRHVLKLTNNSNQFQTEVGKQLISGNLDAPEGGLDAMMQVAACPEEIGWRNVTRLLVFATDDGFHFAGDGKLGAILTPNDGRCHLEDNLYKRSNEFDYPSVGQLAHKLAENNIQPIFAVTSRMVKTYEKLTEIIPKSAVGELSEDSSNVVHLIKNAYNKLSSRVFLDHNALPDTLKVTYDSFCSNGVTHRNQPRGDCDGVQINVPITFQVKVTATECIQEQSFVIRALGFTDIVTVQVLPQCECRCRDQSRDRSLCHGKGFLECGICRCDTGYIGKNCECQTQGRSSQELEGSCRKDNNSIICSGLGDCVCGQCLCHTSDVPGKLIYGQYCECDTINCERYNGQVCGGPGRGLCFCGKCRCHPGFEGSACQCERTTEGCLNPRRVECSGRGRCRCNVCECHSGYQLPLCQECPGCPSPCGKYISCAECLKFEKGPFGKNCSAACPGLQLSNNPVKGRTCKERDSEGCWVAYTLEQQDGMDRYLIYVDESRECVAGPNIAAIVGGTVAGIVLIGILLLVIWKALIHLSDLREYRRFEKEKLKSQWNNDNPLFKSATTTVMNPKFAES", "assay": "LFA-1/small molecule ligand binding ELISA", "conditions": "FIG. 10B, D, F", "method": "(§1) Pharmacologic Analysis of Drug-Receptor Interaction, Lippincott-Raven, Philadelphia). […] The order of antagonist concentrations was, -[…]-(lowest added antagonist concentration), -Δ-, -μ-, -♦-, -▪-, -σ- to -λ-(highest antagonist concentration). The fits of the data are shown as the solid lines. The data shown are from one plate and are representative of a minimum of two experiments.\n(§2) In all cases the ligand was added concurrently with the antagonist. The plates were incubated for 6 h at 37° C. to approach equilibrium conditions after antagonist and ligand addition, before wash and addition of the detection antibody. The EC50 values for each curve were determined by fitting with a four parameter model as described above. […] The slopes of the plots of the Log (Conc. ratio −1) vs. Antagonist concentration are calculated by fitting the line to the linear equation, Y=A+BX."}, "LFA-1 [2]": {"biological_target": "T1, LFA-1", "assay": "LFA-1/small molecule ELISA, antagonist competition with compound 2B", "conditions": "25 nM compound 2B; FIG. 8B; read-out: IC50, inhibition of binding of compound 2B to LFA-1", "protocol": "96-well plates were coated with 5 μg/ml (33.3 nM) mouse anti-human 82 integrin (a non-function blocking antibody) in phosphate-buffered saline (PBS) overnight at 4° C. The plates were blocked with assay buffer (20 mM Hepes, pH 7.2, 140 mM NaCl, 1 mM MnCl2, 0.5% bovine serum albumin (BSA) and 0.05% Tween-20) for 1 hour at room temperature. After washing in buffer (50 mM Tris-HCl, pH 7.5, 100 mM NaCl, 1 mM MnCl2, and 0.05% Tween-20), 8 nM LFA-1 (LFA-1/ICAM-1 ELISA) or 2 nM LFA-1 (LFA-1/small molecule ELISA) were added, followed by incubation for 1 h at 37° C. […] In the LFA-1/small molecule ELISA, the diluted antagonists and 25 nM compound 2B were added concurrently to the plates, followed by a 2-hour incubation at 37° C. Sheep anti-fluorescein-HRP was added after a wash and incubated for one hour at 37° C. For both assays, after washing, the bound HRP-conjugated antibodies were detected by addition of tetramethylbenzidine (TMB) followed by measurement of the absorbance of the product at 450 nm after the addition of 1 M H3PO4 to stop the reaction. The IC50 values for each curve were determined by fitting to the four-parameter equation described above using KaleidaGraph software."}, "LFA-1/ICAM-1": {"biological_target": "T2, LFA-1/ICAM-1 (Homo sapiens, UniProt P05107+P20701)", "T2 construct": "made in house; host or cells: human 293 cells", "T2 sequence (P20701 26-1170)": "as the sequence (P20701 26-1170) above", "T2 sequence (P05107 23-769)": "as the sequence (P05107 23-769) above", "assay": "LFA-1/ICAM-1 ligand binding ELISA with Schild analysis", "excerpt": "as §1\nThis model is based upon the assumptions that equiactive responses in an assay are the result of equivalent occupancy of receptor by ligand and that maximal binding is unchanged by the presence of antagonist. In a Schild analysis, the dose ratio is the ratio of the EC50 values in the presence and absence of antagonist and is a measure of the ligand concentrations leading to equiactive responses. This dose ratio was determined for each concentration of antagonist and the Schild regressions were plotted as shown in FIG. 11.\nas §2"}},
  "data": [
    {"molecule": "sICAM-1: truncated form of native ICAM-1 without the transmembrane and cytoplasmic domains, with intact LFA-1 binding epitope; R&D Systems (protein, UniProt P05362 28-480, looked up, extracellular domain, R&D Systems) extracellular domain: QTSVSPSKVILPRGGSVLVTCSTSCDQPKLLGIETPLPKKELLLPGNNRKVYELSNVQEDSQPMCYSNCPDGQSTAKTFLTVYWTPERVELAPLPSWQPVGKNLTLRCQVEGGAPRANLTVVLLRGEKELKREPAVGEPAEVTTTVLVRRDHHGANFSCRTELDLRPQGLELFENTSAPYQLQTFVLPATPPQLVSPRVLEVDTQGTVVCSLDGLFPVSEAQVHLALGDQRLNPTVTYGNDSFSAKASVSVTAEDEGTQRLTCAVILGNQSQETLQTVTIYSFPAPNVILTKPEVSEGTEVTVKCEAHPRAKVTLNGVPAQPLGPRAQLLLKATPEDNGRSFSCSATLEVAGQLIHKNQTRELRVLYGPRLDERDCPGNWTWPENSQQTPMCQAWGNPLPELKCLKDGTFPLPIGESVTVTRDLEGTYLCRARSTQGEVTRKVTVNVLSPRYE", "values": [
      {"measurement": "effect of increasing antagonist concentration on compound 2B binding curves", "setting": "LFA-1 [1]", "result": "showed a similar effect"},
      {"measurement": "IC50", "setting": "LFA-1 [2]", "result": 1200, "unit": "nM"},
      {"measurement": "effect of increasing antagonist concentration on ICAM-1-Ig binding curves", "setting": "LFA-1/ICAM-1; FIG. 10A, C, E", "result": "shifted the ICAM-1-Ig binding curves rightward to higher EC50 values"},
      {"measurement": "slope of Schild regression", "setting": "LFA-1/ICAM-1; ligand ICAM-1-Ig, FIG. 11", "result": 1.26},
      {"measurement": "y-intercept of Schild regression", "setting": "LFA-1/ICAM-1; ligand ICAM-1-Ig, FIG. 11", "result": 8.51}
    ]}
  ]
}
